This note sets out measurements from US20260008852A1 (CRYSTAL BIOSCIENCE, published 2026).

This test has as its target T1, his-tagged B7-H3 (UniProt Q5ZPR3-2 29-245, limits assumed).
T1 construct: also called CD276; not shown: His tag
T1 sequence (looked up): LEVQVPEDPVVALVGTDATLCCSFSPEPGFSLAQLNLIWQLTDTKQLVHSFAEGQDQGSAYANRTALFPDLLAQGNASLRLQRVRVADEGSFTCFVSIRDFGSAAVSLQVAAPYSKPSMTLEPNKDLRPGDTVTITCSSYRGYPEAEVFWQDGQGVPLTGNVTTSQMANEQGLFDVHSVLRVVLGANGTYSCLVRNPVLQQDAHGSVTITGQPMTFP
Nature of the test: SPR, Carterra LSA; binder captured by anti-human Fc, his-tagged B7-H3 injected. On the procedure:
Binding affinities of anti-B7-H3 antibodies to B7-H3 were measured by Surface Plasmon Resonance (SPR) on a Carterra LSA instrument. Goat anti-human Fc antibody was amine coupled to a HC30M chip. ScFv-Fc supernatants were diluted 30-fold with HBSTE and were captured by the anti-human Fc coupled HC30M chip. A 1:2 dilution series of his-tagged B7-H3, starting at 400 nM, was injected onto the chip for binding. Data was analyzed using the Carterra TM Kinetics software.
A general note: SPR reads the build-up and loss of mass on a sensor chip optically.

B1: 40511p1.1.C3 scFv-Fc (scFv, V domains shown)
VH: DVQLVESGGGVVRPGGSLRLSCAASGFTFRIYGMTWVRQAPGEGLEWVSTISGSGNSTYYADSVKGRFTISRDNSKNTLYLQMNSLRAEDTAVYYCAKTWNNYRFFDYWGLGTLVTVSS
VL: EIVLTQSPGTLSLSPGERATLSCRASQPINSSYLAWYQQKPGQAPRLLIYAASSRATDIPDRFSGSGSGTDFTLTISSLQSEDFAVYYCQQYYDWPQFTFGGGTKVEIK
Turning to B1, the Kd (usually the free concentration of one partner at which half of the binding sites on the other are occupied at equilibrium, for simple one-to-one binding) is 47.7 nM; the koff (commonly the first-order rate constant of dissociation) came out at 0.02 s⁻¹; the kon (as a rule, the second-order rate constant of association) came to 406000 M⁻¹ s⁻¹.

B2: 40511p1.1.D6 scFv-Fc (scFv, V domains shown)
VH: DVQLVESGGGVVRPGESLTLSCAASGFTINSYAVSWVRQAPGEGLEWVSGISGSGVRYYADSVKGRFTISRDNSNNTLYLQMNSLRAEDTAVYYCARSNKVTWNNFFDYWGLGTLVTVSS
VL: EVVLTQSPGTLTLSPGERATLSCRASRSILTSLAWYQQKPGQAPRLLIYNTVTRATGIPARFSGSGSGTEFTLTINSLQSEDFAVYYCQQYYDWPPLTFGGGTKVEIK
notes: Tested as scFv-Fc supernatant
Regarding B2, binding was characterised by a dissociation constant (Kd) of 0.325 nM and the kon was 669000 M⁻¹ s⁻¹.

B3: 40511p1.1.G3 scFv-Fc (scFv, V domains shown)
VH: DVQLVESGGGVVRPGESLTLSCAASGFTINSYAVSWVRQAPGEGLEWVSGISGSGVRYYADSVKGRFTISRDDSNNTLYLQMNSLRAEDTAVYYCARSNKVTWNNFFDYWGLGTLVTVSS
VL: EVVLTQSPGTLTLSPGERATLSCRASRSILTSLAWYQQKPGQAPRLLIYNTVTRATGIPARFSGSGSGTEFTLTINSLQSEDFAVYYCQQYYDWPPLTFGGGTKVEIK
notes: Tested as scFv-Fc supernatant
B3 had a Kd of 0.759 nM and a kon of 494000 M⁻¹ s⁻¹.

B4: 40511p1.1.C4 scFv-Fc (scFv, V domains shown)
VH: DVQLVESGGGVVRPGESLRLSCAASGFTFSSYAMSWVRQAPGEGLEWVSRISGSGNSTDYAESVKGRFTISRDSSKNTLYLQMNSLRAEDTAVYYCAKHSTVSFFDYWGLGTLVTVSS
VL: EIVLTQSPGTLSLSPGERATLSCRASQSISSRYLAWYQQKPGQAPRLLIYGASRRATGIPARFSGSGSGTEFTLTISSLQSEDFAVYYCQQYGHWPPLTFGGGTKVEIK
In turn, B4 came in with a dissociation constant Kd of 17.1 nM and a kon of 76900 M⁻¹ s⁻¹.

B5: 40511p1.1.D3 scFv-Fc (scFv, V domains shown)
VH: DVQLVESGGGVVRPGGSLRLSCAASGFTFRSYGMNWVRQAPGEGLEWVSRMSSGGGAYYADSVKGRFTISRDNSKNTLYLQMNSLRAEDTAVYYCARNSRDFFFDQWGLGTLVTVSS
VL: ETVLTQSPGTLSLSPGERATLSCRASQSVNSKLAWYQQKPGQAPRLLIYGASSRATGIPARFSGSGSGTEFTLTISSLQTEDFAVYYCQQYSDWPPLTFGGGTKVEIK
As to B5, the Kd was determined as 321 nM, the koff is 0.04 s⁻¹ and the kon turned out to be 109000 M⁻¹ s⁻¹.

B6: 40511p1.1.A1 scFv-Fc (scFv, V domains shown)
VH: DVQLVESGGGVVRPGESLRLSCAASGFTFSNYAMNWVRQAPGEGLEWVSRINYKGYNITYYADSVKGRFTISRDNSKNTLYLQMNSLRAEDTAVYYCAKSGSNSNNFFDYWGLGTLVTVSS
VL: EIVLTQSPGTLSVSPGERATLSCRASQSVNSKLAWYQQRPGQAPRLLIYDASSRATGIPDRFSGSGSGTDFTLTISRLEPEDFAVYYCQQYKNWPPLTFGGGTKVEIK
notes: Tested as scFv-Fc supernatant
Consider B6, for which the Kd turned out to be 463 nM, the koff was 0.04 s⁻¹ and the kon was found to be 93000 M⁻¹ s⁻¹.

B7: 40511p1.1.H5 scFv-Fc (scFv, V domains shown)
VH: DVQLVESGGGVVRPGESLRLSCAASGFTFSNYAMNWVRQAPGEGLEWVSRINYKGYNITYYADSVKGRFTISRDNSKNTLYLQMNSLRAEDTAVYYCAKSGSNSNNFFDYWGLGTLVTVSS
VL: EIVLTQSPGTLSLSPGERATLSCRASQSIRSDLAWYQQKPGQAPRLLIYGAASRATGIPARFSGSGSGTEFTLTISSLQSGDFAVYYCQQYNSWPPLTFGGGTKVEIK
notes: Tested as scFv-Fc supernatant
As to B7, the Kd amounted to 123 nM and the kon worked out at 10300 M⁻¹ s⁻¹.

B8: 40511p1.1.H10 scFv-Fc (scFv, V domains shown)
VH: DVQLVESGGGVVRPGESLRLSCAASGFTFSNYAMNWVRQAPGEGLEWVSRINYKGYNITYYADSVKGRFTISRDNSKNTLYLQMNSLRAEDTAVYYCAKSGSNSNNFFDYWGLGTLVTVSS
VL: EIVLTQSPGNLSLSPGERATLSCRASQSVGSQLGWYQQKPGQAPRLLIYGASTRATGIPDRFSGSGSGTEFALTISSLQSEDFAVYYCQQYYDWPPLTFGGGTKVEIK
As to B8, the Kd amounted to 1.41 nM and the kon is 752000 M⁻¹ s⁻¹.

B9: 40511p1.2.A12 scFv-Fc (scFv, V domains shown)
VH: DVQLVESGGGVVRPGESLRLSCAASGFTFSSYAESWVRQAPGEGLEWVSIISGSGGNTFYADSVKGRFTISRDNSKNTLYLQMNSLRAEDTAVYYCARFAYGFFDYWGLGTLVTVSS
VL: EIVLTQSPGTLSVSPGERATLSCRASQTVGSKLAWYQQKPGQPPSLLIYDASTRATGIPDRFSGSGSGTDFTLTISSLQSEDFAVYYCQQYRNWPPLTFGGGTKVEIK
notes: Tested as scFv-Fc supernatant; also called 40511p1.2.Al2
Regarding B9, binding was put at a Kd of 25.1 nM, the koff was determined as 0.03 s⁻¹ and the kon worked out at 1.32e+06 M⁻¹ s⁻¹.

B10: 40511p1.2.A4 scFv-Fc (scFv, V domains shown)
VH: DVQLVESGGGVVRPGESLRLSCAASGFTFSSYAESWVRQAPGEGLEWVSIISGSGGNTFYADSVKGRFTISRDNSKNTLYLQMNSLRAEDTAVYYCARFAYGFFDYWGLGTLVTVSS
VL: EIVLTQSPGTLSVSPGERATLSCRASQTVGSKLAWYQQKPGQAPRLLIYDASTRATDIPDRFSGSGSGTDFTLTISSLQSEDFAVYYCQQYRNWPPLTFGGGTKVEIK
notes: Tested as scFv-Fc supernatant
B10 gave a Kd of 52 nM, a koff of 0.04 s⁻¹ and a kon of 768000 M⁻¹ s⁻¹.

B11: 40511p1.1.G1 scFv-Fc (scFv, V domains shown)
VH: DVQLVESGGGVVRPGESLRLSCAASGFTFSSYAESWVRQAPGEGLEWVSIISGSGGNTFYADSVKGRFTISRDNSKNTLYLQMNSLRAEDTAVYYCARFAYGFFDYWGLGTLVTVSS
VL: EIVLTQSPGTLSVSPGEGATLSCRASQTVGSKLAWYQQKPGQPPSLLIYDASTRATGIPDRFSGSGSGTDFTLTISSLQSEDFAVYYCQQYRNWPPLTFGGGTKVEIK
notes: Tested as scFv-Fc supernatant
B11 had a Kd of 54.4 nM, a koff of 0.02 s⁻¹ and a kon of 458000 M⁻¹ s⁻¹.

B12: 40511p1.2.G10 scFv-Fc (scFv, V domains shown)
VH: DVQLVESGGGVVRPGESLRLSCAASGFTFSNYAMNWVRQAPGEGLEWVSRINYKGYNITYYADSVKGRFTISRDNSKNTLYLQMNSLRAEDTAVYYCAKSGSNSNNFFDYWGLGTLVTVSS
VL: EIVLTQSPGTLSLSPGERATLSCRASQTVGSKLAWYQQKPGQAPRLLIYGASTRATDIPDRFSGSGSGTEFTLTISSLQSEDFAVYYCQQYINWPPLSFGGGTKVEIK
notes: Tested as scFv-Fc supernatant
Consider B12, for which the Kd amounted to 15 nM, the koff worked out at 0.01 s⁻¹ and the kon was determined as 645000 M⁻¹ s⁻¹.

B13: 40511p1.1.D8 scFv-Fc (scFv, V domains shown)
VH: DVQLVESGGGVVRPGESLRLSCAASGFTFSSYAMSWVRQAPGEGLEWVSSISGSGGSTLYADSVKGRFTISRDSSNNSLYLQMNSLRAEDTAVYYCAKARNNFFDYWGLGTLVTVSS
VL: EIVLTQSPGTLTLSPGERATLSCRASRSILTSLAWYQQRPGQAPRLLIYGANSRATGIPDRFSGSGSGTEFTLTISSLQSEDFAVYYCQQYYDWLTITFGGGTKVEIK
B13 came in with a Kd of 71.8 nM, a koff of 0.02 s⁻¹ and a kon of 340000 M⁻¹ s⁻¹.

B14: 40511p1.2.A8 scFv-Fc (scFv, V domains shown)
VH: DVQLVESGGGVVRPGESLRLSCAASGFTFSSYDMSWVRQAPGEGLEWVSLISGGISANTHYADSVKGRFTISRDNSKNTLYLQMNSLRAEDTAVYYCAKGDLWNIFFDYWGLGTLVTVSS
VL: EIVLTQSPATLSVSPGERATFSCRASQNVRSYLAWYQQKPGQAPRLLIFNTVTRATGIPDRFSGSGSGTDFTLTISSLEPEDFAVYYCQQYYDWPPLTFGGGTKVEIK
On to B14, for which binding was characterised by a dissociation constant (Kd) of 0.639 nM and the on-rate (kon) amounted to 364000 M⁻¹ s⁻¹.
